Assay results as given in patent US20200399385A1 (Bristol-Myers Squibb, published 2020).

T1: cynomolgus OX40 on cells (cynomolgus, UniProt P43489 29-277 (human entry))
T1 construct: also called cynoOX40-CHO
T1 chain: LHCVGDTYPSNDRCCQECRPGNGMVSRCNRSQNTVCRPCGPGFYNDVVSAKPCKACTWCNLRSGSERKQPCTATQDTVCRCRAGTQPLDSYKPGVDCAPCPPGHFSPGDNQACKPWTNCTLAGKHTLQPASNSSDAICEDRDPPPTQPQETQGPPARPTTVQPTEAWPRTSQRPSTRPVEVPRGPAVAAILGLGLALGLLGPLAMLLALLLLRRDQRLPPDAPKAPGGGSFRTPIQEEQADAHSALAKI

T2: human OX40 on cells (human, UniProt P43489 29-277)
T2 construct: also called hOX40-293 cells; hOX40-HT1080
T2 sequence: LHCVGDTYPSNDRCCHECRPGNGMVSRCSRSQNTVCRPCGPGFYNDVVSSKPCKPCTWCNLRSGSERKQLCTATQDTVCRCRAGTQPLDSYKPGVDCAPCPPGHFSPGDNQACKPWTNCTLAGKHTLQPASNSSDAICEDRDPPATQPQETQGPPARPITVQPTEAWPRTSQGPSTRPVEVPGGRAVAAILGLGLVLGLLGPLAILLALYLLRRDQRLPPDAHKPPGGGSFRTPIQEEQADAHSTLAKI

T3: his-tagged soluble human OX40 (huOX40-6xhis) (human, UniProt P43489 29-214)
T3 construct: made in-house; also called Human-OX40-6XHIS; hOX40; not shown: hexahistidine tag
T3 sequence: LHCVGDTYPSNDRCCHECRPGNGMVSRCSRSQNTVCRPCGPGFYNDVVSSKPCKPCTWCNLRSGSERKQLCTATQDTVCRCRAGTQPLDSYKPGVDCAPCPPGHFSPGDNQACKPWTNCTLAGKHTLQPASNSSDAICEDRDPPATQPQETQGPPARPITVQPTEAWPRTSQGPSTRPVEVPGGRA


Assays:
cynomolgus OX40 on cells [1] = target: T1, cynomolgus OX40 on cells; experiment: FACS, activated cyno T cells; mean ± SD, n=4
Procedure: (§1) Briefly, cells were activated for several days before the binding assay in order to induce OX40 expression. Total leukocytes were isolated from cynomolgus macaque peripheral blood by lysis of red blood cells using an ammonium chloride buffer. The leukocytes were then cultured for four to five days with in flasks pre-coated with anti-human CD3 plus anti-human CD28 antibodies that cross-react with cynomolgus macaque, in the presence of recombinant human IL-2, in order to expand and activate T cells. On the day of the assay, the cells were harvested and stained with a titration of each anti-OX40 antibody. Bound antibodies were detected with a fluorescently conjugated anti-human IgG polyclonal secondary antibody, and the cells were co-stained for CD4 and CD25 to detect activated CD4 T cells. The fluorescence intensity of the staining was measured using a FACSCanto II flow cytometer (Becton Dickinson). The geometric mean fluorescence intensity (GMFI) or median fluorescence intensity (MedFI) of anti-OX40 antibody staining was calculated for the CD4+CD25+ population (FACSDiva software). Dose-response curves were generated and EC50s for antibody binding were calculated using GraphPad Prism software.

human OX40 on cells [2] = target: T2, human OX40 on cells; experiment: FACS, activated human T cells; mean ± SD, n=2
Procedure: (§2) Cells were activated for several days before the binding assay in order to induce OX40 expression. Briefly, PBMCs were cultured for three or four days with magnetic beads coated with anti-human CD3 plus anti-human CD28, in the presence of recombinant human IL-2. On the day of the assay, the beads were removed and the cells stained with a titration of each anti-OX40 antibody. Bound antibodies were detected with a fluorescently conjugated anti-human IgG polyclonal secondary antibody, and the cells were co-stained for CD4 and CD25 to detect activated CD4 T cells. The fluorescence intensity of the staining was measured using a FACSCanto II flow cytometer (Becton Dickinson). The geometric mean fluorescence intensity (GMFI) or median fluorescence intensity (MedFI) of anti-OX40 antibody staining was calculated for the CD4+CD25+ population (FACSDiva software). EC₅₀s for antibody binding were calculated using GraphPad Prism software.

human OX40 on cells [3] = target: T2, human OX40 on cells; experiment: cell-based or functional assay
human OX40 on cells [4] = target: T2, human OX40 on cells; experiment: FACS competition on HT1080-hOX40 cells against APC-OX40.1 (FL2 MFI); the table gives no unit, axis 'Ab conc nM'
Procedure: (§3) This experiment was performed to test the cross-blocking properties of various anti-OX40 antibodies to assess binding specificities. […] Cells were washed and if necessary further incubated in the presence of streptavidin-APC conjugate under the same conditions. After the final wash, cells were analyzed on a FACSCanto flow cytometer (BD Bioscience, San Jose, Calif.). Mean fluorescence intensity (MFI) signal was proportional to bound conjugated antibody.

[5] = target: T3, his-tagged soluble human OX40 …; experiment: SPR, mAb captured on anti-human CH1, OX40-6XHIS analyte, 1:1 fit
Procedure: The affinity of several OX40 antibodies for soluble human OX40 was tested by SPR analysis. […] Human-OX40-6XHIS antigen in either a single concentration of 400 nM or a 1:2 serial dilution from 400 nM was used. Experiments were carried out on BIACORE® T200 or BIACORE® 3000 SPR instruments. Data was fit to a 1:1 model.

human OX40 on cells [6] = target: T2, human OX40 on cells; experiment: FACS, blocking of OX40L-His (0.2 µg/mL) binding to hOX40-293 cells
Procedure: Briefly, 293 cells stably transfected with human OX40 were first pre-incubated with varying concentrations of anti-OX40 antibodies. […] The fluorescence intensity of the staining was measured using a FACSCanto II flow cytometer (Becton Dickinson).

human OX40 on cells [7] = target: T2, human OX40 on cells; experiment: FACS, activated human T cells; mean ± SD, n=3
Procedure: as §2

human OX40 on cells [8] = target: T2, human OX40 on cells; experiment: FACS competition on hOX40-293 cells against biotin-OX40.5 (spike biotOX.5 @ 0.4 ug/mL, streptavidin-APC); FL4-MFI falls from about 8700 to about 4100; the table gives no unit, axis in nM
Procedure: as §3

human OX40 on cells [9] = target: T2, human OX40 on cells; experiment: FACS competition on hOX40-293 cells against biotin-OX40.5 (spike biotOX.5 @ 0.4 ug/mL, streptavidin-APC); partial inhibition, FL4-MFI falls from about 8700 to about 6400; the table gives no unit, axis in nM
Procedure: as §3

human OX40 on cells [10] = target: T2, human OX40 on cells; experiment: cell-based or functional assay; remark: listed apart in the source
human OX40 on cells [11] = target: T2, human OX40 on cells; experiment: FACS competition on HT1080-hOX40 cells against APC-OX40.1 (FL2 MFI); the table gives no unit, axis 'Ab conc nM'; NOTE: the curve of this antibody is flat at about 18000 (no inhibition), the printed fit value has no meaning as a potency
Procedure: as §3

cynomolgus OX40 on cells [12] = target: T1, cynomolgus OX40 on cells; experiment: FACS, activated cyno T cells; mean ± SD, n=3
Procedure: as §1

human OX40 on cells [13] = target: T2, human OX40 on cells; experiment: FACS, activated primary human CD4+/CD25+ T cells, purified recombinant antibody, fluorescent anti-human IgG secondary (APC GMFI)
Procedure: as §2

cynomolgus OX40 on cells [14] = target: T1, cynomolgus OX40 on cells; experiment: FACS, activated primary cynomolgus macaque CD4+/CD25+ T cells, purified recombinant antibody, fluorescent anti-human IgG secondary (APC GMFI)
Procedure: as §1
The same experiment was performed with anti-OX40 antibodies with variable region substitutions.

Binder	EC50 (cynomolgus OX40 on cells [1])	EC50 (human OX40 on cells [2])	Proliferation EC50, CD4 T cells + CHO-CD3-CD32A (human OX40 on cells [3])	IC50 (human OX40 on cells [4])	Kd [5]	koff [5]	kon [5]	EC50 (human OX40 on cells [6])	EC50 (human OX40 on cells [7])	IL-2 EC50, SEB PBMC, donor BMS-001 (human OX40 on cells [10])	IL-2 EC50, SEB PBMC, donor BMS-004 (human OX40 on cells [10])	IL-2 EC50, SEB PBMC, donor BMS-009 (human OX40 on cells [10])	IL-2 EC50, SEB PBMC, donor BMS-012 (human OX40 on cells [10])	IL-2 EC50, SEB PBMC, donor BMS-015 (human OX40 on cells [10])	IL-2 EC50, SEB PBMC, donor BMS-016 (human OX40 on cells [10])	IL-2 EC50, SEB PBMC, donor WB10024 (human OX40 on cells [10])	IL-2 EC50, SEB PBMC, donor WB10025 (human OX40 on cells [10])	IL-2 EC50, SEB PBMC, donor WB10026 (human OX40 on cells [10])	IL-2 EC50, SEB PBMC, donor WB10027 (human OX40 on cells [10])	IL-2 EC50, SEB PBMC, donor WB10137 (human OX40 on cells [10])	also measured
8B11 (antibody, V domains shown, also called 8B11.H9.C1; 8B11.H9) VH: EIQLVQSGGGLVHPGGSLRLSCAGSGFTFSSDAMYWVRQAPGKGLEWVSAIGIGGDTYYTDSVMGRFTISRDNAKNSLYLQMNSLRAEDMAVYYCARLGMGYYFDYWGQGTLVTVSS VL: not shown	200 pM	140 pM	22 pM	1410 pM	10500 pM	0.00051 s⁻¹	48000 M⁻¹ s⁻¹	450 pM													
23H3 (antibody, V domains shown, also called 23H3.C6) VH: EVQLVQSGGGLVHPGGSLRLSCAGSGFTFSNYAMYWVRQAPGKGLEWVSAIGIGGDTFYTDSVKGRFTISRDNAKNSLSLQMNSLRAEDMAVYYCARMGTGYFFDYWGQGTLVTVSS VL: EIVLTQSPATLSLSPGERATLSCRASQSVSSYLAWYQQKPGQAPRLLIYDASNRATGIPARFSGSGSGTDFTLTISSLEPEDFAVYYCQQRSNWPLTFGPGTKVDIK	180 pM		28 pM		3600 pM	0.000395 s⁻¹	110000 M⁻¹ s⁻¹	380 pM	150 pM												EC50 (human OX40 on cells [8]): 3680 pM
3F4 (antibody, V domains shown, also called 3F4.G11.D2; 3F4.G11) VH: QVQLVQSGAEVKKPGASVKVSCKASGNTFTSYDVNWVRQATGQGLEWMGWMNPNSGNTGYAPKFQGRVTMTRNTSISTAYMELSSLRSEDTAVYYCARIYSSSYNWFDPWGQGTLVTVSS VL: EIVLTQSPATLSLSPGERATLSCRASQSVSSYLAWYQQKPGQAPRLLIYDASNRATGIPARFSGSGSGTDFTLTISSLEPEDFAVYYCQQRSNWPLTFGGGTKVEIK	370 pM		16 pM	706 pM	7130 pM	0.000379 s⁻¹	53100 M⁻¹ s⁻¹	540 pM	190 pM												EC50 (human OX40 on cells [9]): 3710 pM
OX40.18 (antibody, human IgG1, kappa, V domains shown, g1f) VH: QVQLVQSGAEVKKPGASVKVSCKASGYTFTSYDVNWVRQATGQGLEWMGWMNPNSGNTGYAPKFQGRVTMTRDTSISTAYMELSSLRSEDTAVYYCARIYSSSYNWFDYWGQGTLVTVSS VL: EIVLTQSPATLSLSPGERATLSCRASQSVSSYLAWYQQKPGQAPRLLIYDASNRATGIPARFSGSGSGTDFTLTISSLEPEDFAVYYCQQRSNWPLTFGGGTKVEIKR		3150 pM	230 pM							~84800 pM	2430 pM	3210 pM	~1670 pM	> 100000 pM	> 100000 pM	~3170 pM	~1140 pM	3020 pM	~3270 pM	> 100000 pM	IL-2 Mean EC50, SEB PBMC, all donors (human OX40 on cells [10]): 2890 pM; IFNγ EC50, CD4 T cells + CHO-CD3-CD32A (human OX40 on cells [3]): 490 pM
6E1 (antibody, V domains shown, also called 6E1.A12.A2; 6E1.A12) VH: QVQLVESGGGVVQPGRSLRLSCAASGFTFSSFAMHWVRQAPGKGLEWVTVISYDGSIKYYTDSVKGRFTFSRDNSKNTLYLQMNSLRAEDTAVYYCTRDGNYGSARYFQHWGQGTLVTVSS VL: EIVLTQSPATLSLSPGERATLSCRASQSVSSYLAWYQQKPGQAPRLLIYDASNRATGIPARFSGSGSGTDFTLTISSLEPEDFAVYYCQQRSNWPYTFGQGTKLEIK	770 pM	970 pM	14 pM		11000 pM	0.00141 s⁻¹	128000 M⁻¹ s⁻¹														IC50 (human OX40 on cells [11]): ~2.49 pM
OX40.17 (antibody, human IgG1, kappa, V domains shown) VH: EVQLVESGGGLVQPGGSLRLSCAASGFTFSSYDMHWVRQTTGKGLEWVSVIGTAGDTYYPGSVKGRFTISRENAKNSLYLQMNSLRAGDTAVYYCARGGMGNYFDYWGQGTLVTVSS VL: EIVLTQSPATLSLSPGERATLSCRASQSVSSYLAWYQQKPGQAPRLLIYDASNRATGIPARFSGSGSGTDFTLTISSLEPEDFAVYYCQQRSNWPLTFGGGTKVEIKR			9 pM						260 pM	410 pM	1030 pM	970 pM	1740 pM	1160 pM	1400 pM	1060 pM	1350 pM	1680 pM	1150 pM	920 pM	EC50 (cynomolgus OX40 on cells [12]): 520 pM; IL-2 Mean EC50, SEB PBMC, all donors (human OX40 on cells [10]): 1170 pM; IFNγ EC50, CD4 T cells + CHO-CD3-CD32A (human OX40 on cells [3]): 44 pM; EC50 (read off the curve) (human OX40 on cells [13]): ~200 pM; EC50 (read off the curve) (cynomolgus OX40 on cells [14]): ~400 pM
